Consider one substance from paper PMC5145273.

The target in this test is FabL9, soluble purified Fab. The test can be described thus: ELISA. On the technique in general: In an ELISA, binding on a coated surface is turned into a signal by an enzyme label.

For orientation: IC50 means the concentration that gives 50% inhibition. For “GluA4_(flip) ligand-binding domain (LBD), rat (domain or fragment)”, the IC50 was 260 nM.
